Test results from patent publication US20260193363A1.

Assays:
[1] = target: EGFRvIII on F98npEGFRvIII cells (rat glioma F98 transfected with nonphosphorylated EGFRvIII); assay: flow cytometry, antibodies added at 2 µg/ml, F98-npEGFRvIII cells
[2] = target: EGFR and EGFRvIII on GBM39 cells (patient derived xenograft glioblastoma line); assay: flow cytometry on GBM39 cells, antibody at 0.2 µg/ml
[3] = target: EGFR loop peptide, His-tagged (EGFRlp-HIS) (human); assay: BLI (Octet Red96), His-tagged antigen on Ni-NTA biosensors, antibody in solution, 30 C
[4] = target: EGFR and EGFRvIII on GBM39 cells (patient derived xenograft glioblastoma line); assay: flow cytometry on GBM39 cells, antibody at 20 µg/ml
[5] = target: EGFR and EGFRvIII on GBM39 cells (patient derived xenograft glioblastoma line); assay: flow cytometry on GBM39 cells, antibody at 2 µg/ml
[6] = target: EGFR loop peptide, His-tagged (EGFRlp-HIS) (human); assay: BLI (Octet Red96), His-tagged antigen on Ni-NTA biosensors, conjugate in solution, 30 C

B1: monoclonal antibody 11G3 (antibody, V domains shown)
VH: QVQLKQSGPSLVQPSQSLSITCTVSGFSLTNYGVHWVRQSPGKGLEWLGVMWRGGRTDYNAAFMSRLSITKDNSRSQVFFKMNSLQTDDAAIYYCAKNGPFGNFAGYWGQGTLVTVST
VL: DIVMSQSPSSLPVSVGEKVSLTCKSSRSLLDNQKHYLAWYQQKPGQSPKLLIYWASTRESGVPDRFTGSGSGTEFTLTISSVKAEDLAVYYCQQFYNYPYTFGGGTKLEIK
[1]
  Median : PE-A: 1080

B2: monoclonal antibody 40H3 (antibody, V domains shown)
VH: QVQLKQSGPGLVQPSQSLSITCTVSGFSLTNYGIHWLRQSPGKGLEWLGMMWRGGGTDYNAAFISRLTITKDTSKSQVFFRMNNLQTNDTAIYYCARKGVGMGLGYWGQGTSVTVSS
VL: DIQMTQSPASQSASLGESVTITCLASQTIGTWVAWYQQKPGRSPQLLIYGATNLADGVPSRFSGSGSGTKFSFKISSLQAEDFVSYYCQQLYSNPYTFGGGTKLEIK
[2]
  median fluorescent intensity: 9450
[3]
  Kd: 1.11 nM
  koff: 6.07e-05 s⁻¹
  kon: 54900 M⁻¹ s⁻¹
[4]
  median fluorescent intensity: 8600
[5]
  median fluorescent intensity: 10700

B3: 40H3 DM1 antibody drug conjugate (antibody, V domains shown)
VH: B2 VH
VL: B2 VL
[6]
  Kd: 0.442 nM
  koff: 8.95e-05 s⁻¹
  kon: 202000 M⁻¹ s⁻¹

B4: 40H3 MMAE antibody drug conjugate (antibody, V domains shown)
VH: B2 VH
VL: B2 VL
[6]
  Kd: 0.0846 nM
  koff: 2.24e-05 s⁻¹
  kon: 265000 M⁻¹ s⁻¹
